Data published in PMC4462945 (Molecular Biology of the Cell, 2015).

T1: GST-FliI LRR (mouse)
T1 sequence (Q9JJ28 whole entry, looked up): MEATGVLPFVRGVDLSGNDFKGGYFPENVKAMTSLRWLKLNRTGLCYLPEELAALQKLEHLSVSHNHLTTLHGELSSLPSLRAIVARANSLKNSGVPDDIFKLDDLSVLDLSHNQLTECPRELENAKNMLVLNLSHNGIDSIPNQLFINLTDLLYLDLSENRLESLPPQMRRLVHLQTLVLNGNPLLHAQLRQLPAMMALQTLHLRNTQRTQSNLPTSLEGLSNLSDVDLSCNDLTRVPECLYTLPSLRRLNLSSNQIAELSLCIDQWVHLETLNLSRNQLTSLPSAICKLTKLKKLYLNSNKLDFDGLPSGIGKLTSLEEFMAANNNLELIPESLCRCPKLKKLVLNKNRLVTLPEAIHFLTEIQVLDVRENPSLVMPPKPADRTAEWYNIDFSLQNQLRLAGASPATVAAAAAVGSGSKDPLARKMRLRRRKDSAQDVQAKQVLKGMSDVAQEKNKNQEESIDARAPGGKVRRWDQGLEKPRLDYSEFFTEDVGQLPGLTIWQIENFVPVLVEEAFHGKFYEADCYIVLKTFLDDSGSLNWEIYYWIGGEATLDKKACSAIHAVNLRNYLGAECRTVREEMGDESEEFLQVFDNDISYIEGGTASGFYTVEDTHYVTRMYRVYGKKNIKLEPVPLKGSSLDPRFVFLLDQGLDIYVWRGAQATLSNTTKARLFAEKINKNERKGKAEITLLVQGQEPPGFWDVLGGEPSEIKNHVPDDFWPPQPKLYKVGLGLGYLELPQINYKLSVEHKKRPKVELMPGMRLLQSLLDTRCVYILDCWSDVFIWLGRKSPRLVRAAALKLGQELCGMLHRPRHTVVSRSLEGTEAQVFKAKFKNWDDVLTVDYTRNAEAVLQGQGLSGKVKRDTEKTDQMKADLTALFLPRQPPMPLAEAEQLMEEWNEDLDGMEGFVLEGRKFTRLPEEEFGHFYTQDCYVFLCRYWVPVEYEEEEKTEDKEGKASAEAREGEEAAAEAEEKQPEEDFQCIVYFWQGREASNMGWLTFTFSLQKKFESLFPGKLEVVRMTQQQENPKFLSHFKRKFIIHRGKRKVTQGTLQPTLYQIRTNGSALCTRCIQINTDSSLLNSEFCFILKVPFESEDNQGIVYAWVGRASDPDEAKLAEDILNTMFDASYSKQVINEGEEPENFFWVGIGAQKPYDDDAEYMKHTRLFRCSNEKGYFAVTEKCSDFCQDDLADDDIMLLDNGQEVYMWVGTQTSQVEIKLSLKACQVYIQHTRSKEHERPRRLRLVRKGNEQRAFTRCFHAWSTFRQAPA

T2: GST-FliI GLD 1–6 (mouse, UniProt Q9JJ28 398-1271)
T2 sequence (looked up): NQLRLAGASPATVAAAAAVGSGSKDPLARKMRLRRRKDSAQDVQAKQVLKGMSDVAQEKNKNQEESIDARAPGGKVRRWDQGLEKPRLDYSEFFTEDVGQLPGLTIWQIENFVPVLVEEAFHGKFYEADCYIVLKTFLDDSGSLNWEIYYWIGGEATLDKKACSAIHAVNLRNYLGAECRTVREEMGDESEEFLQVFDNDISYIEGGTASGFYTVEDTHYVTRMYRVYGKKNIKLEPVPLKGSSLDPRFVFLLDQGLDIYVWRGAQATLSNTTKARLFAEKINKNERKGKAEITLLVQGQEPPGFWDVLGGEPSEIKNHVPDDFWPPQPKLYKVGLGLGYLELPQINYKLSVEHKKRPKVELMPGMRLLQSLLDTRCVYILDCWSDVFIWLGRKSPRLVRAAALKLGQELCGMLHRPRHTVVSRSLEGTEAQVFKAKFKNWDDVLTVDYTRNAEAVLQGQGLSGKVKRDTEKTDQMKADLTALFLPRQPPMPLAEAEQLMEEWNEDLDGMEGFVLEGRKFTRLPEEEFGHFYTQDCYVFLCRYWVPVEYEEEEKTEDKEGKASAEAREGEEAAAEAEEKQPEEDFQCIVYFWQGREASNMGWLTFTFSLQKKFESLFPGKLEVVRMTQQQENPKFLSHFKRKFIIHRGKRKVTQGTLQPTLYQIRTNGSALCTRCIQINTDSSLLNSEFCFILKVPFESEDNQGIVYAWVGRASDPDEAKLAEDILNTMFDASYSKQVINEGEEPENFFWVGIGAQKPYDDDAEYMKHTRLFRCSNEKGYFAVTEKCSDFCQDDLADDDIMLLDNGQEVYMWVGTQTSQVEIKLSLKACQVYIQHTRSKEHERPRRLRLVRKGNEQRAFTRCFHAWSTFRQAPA

T3: GST-FliI GLD 2–6 (mouse, UniProt Q9JJ28 619-1271)
T3 sequence (looked up): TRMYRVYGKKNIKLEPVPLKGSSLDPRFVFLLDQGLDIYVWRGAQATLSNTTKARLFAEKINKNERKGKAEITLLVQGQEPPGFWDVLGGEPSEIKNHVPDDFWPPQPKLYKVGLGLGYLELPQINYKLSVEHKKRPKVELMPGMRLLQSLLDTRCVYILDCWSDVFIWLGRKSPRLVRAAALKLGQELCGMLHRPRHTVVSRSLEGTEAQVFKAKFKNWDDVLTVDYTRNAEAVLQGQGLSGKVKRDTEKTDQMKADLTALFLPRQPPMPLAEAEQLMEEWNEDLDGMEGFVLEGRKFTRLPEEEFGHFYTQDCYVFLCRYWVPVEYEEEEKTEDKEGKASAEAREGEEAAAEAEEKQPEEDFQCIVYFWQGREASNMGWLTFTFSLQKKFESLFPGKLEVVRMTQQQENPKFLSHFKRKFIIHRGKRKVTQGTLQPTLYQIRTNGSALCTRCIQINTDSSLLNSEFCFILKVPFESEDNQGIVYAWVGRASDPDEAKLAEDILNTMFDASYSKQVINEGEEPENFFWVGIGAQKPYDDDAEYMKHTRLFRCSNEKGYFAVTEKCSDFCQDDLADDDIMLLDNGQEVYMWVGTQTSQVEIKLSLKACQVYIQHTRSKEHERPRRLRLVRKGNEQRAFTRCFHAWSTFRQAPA


Assays:
Assay in all cases: pull-down
GST-FliI LRR (mouse) = target: T1, GST-FliI LRR (mouse)
GST-FliI GLD 1–6 = target: T2, GST-FliI GLD 1–6
GST-FliI GLD 2–6 = target: T3, GST-FliI GLD 2–6

Row | Kd (GST-FliI LRR (mouse)) | Kd (GST-FliI GLD 1–6) | Kd (GST-FliI GLD 2–6) | Molecule
1 | 5070 nM |  |  | NMMIIA rods (residues 1338–1960) (from UniProt P35579 1338-1960) (domain or fragment)
2 |  | 146 nM | 858 nM | NMMIIA rods (residues 1338–1960) (domain or fragment, UniProt P35579 1338-1960, looked up) KNSFREQLEEEEEAKHNLEKQIATLHAQVADMKKKMEDSVGCLETAEEVKRKLQKDLEGLSQRHEEKVAAYDKLEKTKTRLQQELDDLLVDLDHQRQSACNLEKKQKKFDQLLAEEKTISAKYAEERDRAEAEAREKETKALSLARALEEAMEQKAELERLNKQFRTEMEDLMSSKDDVGKSVHELEKSKRALEQQVEEMKTQLEELEDELQATEDAKLRLEVNLQAMKAQFERDLQGRDEQSEEKKKQLVRQVREMEAELEDERKQRSMAVAARKKLEMDLKDLEAHIDSANKNRDEAIKQLRKLQAQMKDCMRELDDTRASREEILAQAKENEKKLKSMEAEMIQLQEELAAAERAKRQAQQERDELADEIANSSGKGALALEEKRRLEARIAQLEEELEEEQGNTELINDRLKKANLQIDQINTDLNLERSHAQKNENARQQLERQNKELKVKLQEMEGTVKSKYKASITALEAKIAQLEEQLDNETKERQAACKQVRRTEKKLKDVLLQVDDERRNAEQYKDQADKASTRLKQLKRQLEEAEEEAQRANASRRKLQRELEDATETADAMNREVSSLKNKLRRGDLPFVVPRRMARKGAGDGSDEEVDGKADGAEAKPAE
